Experimental data published in publication PMC4035259, “Structural Studies of an Anti-Inflammatory Lectin from Canavalia boliviana Seeds in Complex with Dimannosides” (PLoS ONE, 2014).

B1: Canavalia boliviana lectin (natural protein, UniProt A0A023GPI8 1-237, looked up)
chain: ADTIVAVELDTYPNTDIGDPSYPHIGIDIKSVRSKKTAKWNMQNGKVGTAHIIYNSVGKRLSAVVSYPNGDSATVSYDVDLDNVLPEWVRVGLSATTGLYKETNTILSWSFTSKLKSNSTHETNALHFMFNQFSKDQKDLILQGDATTGRDGNLELTRVSSNGSPQGSSVGRALFYAPVHIWESSAVVASFDATFTFLIKSSDSHPADGIAFFISNIDSSIPSGSTGRLLGLFPDAN
notes: Lectin from Canavalia boliviana seeds, 237 amino acids (full-length alpha-chain, 25,572 Da); the preparation is a combination of the alpha-chain and its fragments, beta-chain (residues 1-118) and gamma-chain (residues 119-237); also called Cbol; CboL; source: purified from Canavalia boliviana seeds (according to Moura et al., 2009)

Assays:
[1] = target: Concanavalin A (Canavalia ensiformis); test: SAXS; in solution, 1, 5 and 10 mg/ml, buffers from pH 3 to pH 9 (JBS Solubility Kit); average molecular weight at each pH from I(0), BSA as size standard; dimer-tetramer equilibrium
[2] = target: the molecule itself; test: as above

| Molecule | stoichiometry N [1] | stoichiometry N [2] |
| --- | --- | --- |
| Concanavalin A (natural protein) | 4 | – |
| B1 | – | 4 |
